{"source": "patent US6180362A", "about": "“Peptides which inhibit ras protein activity, their preparation and use” (Rhone-Poulenc Rorer S.A., priority 1992, dated 2001)", "key": {"[1]": {"test_system": "NIH 3T3 cells cotransfected with oncogenic Ha-ras Val12", "experiment": "Formation of foci of transformed cells", "format": "cell-based", "settings": "foci formation test, result in words", "description": "The activity of P9 was then evaluated in a test for formation of foci of transformed cells. The cancerous cells in fact have the property of forming transformation foci, and in particular fibroblasts NIH 3T3 expressing an oncogenic ras. The cells NIH 3T3 were cultured in DMEM medium (Dulbecco's modified Eagle medium) comprising 10% of foetal calf serum at 37° C. in a humid environment containing 5% of CO2. The plasmids pSV2-GAP and pSV2-P9 were constructed by inserting the nucleotide sequences coding for GAP and for P9 (SEQ ID No. 4) into the vector SV2. The cells NIH 3T3 were cotransfected with an oncogenic ras Ha-ras Va112, the plasmide indicated in the table, and a 10-fold excess of the gene having resistance to neomycin by the technique of transfection with cationic lipids (Schweighoffer et al., Science 256 (1992) 825). The same amount of total DNA is transfected for each dish. 24 hours after transfection, the transfected cells originating from each Petri dish (100 mm) are divided in a ratio of 1 to 10 and cultured in the same medium but in the presence of G418 (Gibco/BRL) in an amount of 0.4 mg/ml of medium. The number of transformation foci obtained per μg of transfected DNA is compatibilized after culture for 14 days. They represent the mean of four independent tests."}, "[2]": {"test_system": "maturation of Xenopus eggs induced by p21 ras Lys12", "experiment": "Maturation of Xenopus eggs (oocytes) induced by ras, % GVBD", "format": "cell-based, Xenopus laevis", "settings": "microinjection into oocyte cytoplasm together with ras p21 protein; GVBD after 18 hours", "description": "Xenopus laevis frogs were obtained from CNRS (Montpellier, France). The frogs are anaesthetized in ice-water and fragments of the ovaries are removed surgically and transferred to a modified Barth medium (Hirai et al., Dev. Biol. 100 (1984) 214). The stage VI oocytes are recovered by agitating the oocyte aggregates for 2 hours at ambient temperature in the presence of 2 mg/ml of collagenase (Sigma). For analysis of the maturation induced by ras, 40 nl of the protein in modified Barth medium are introduced into the cytoplasm of the oocytes by microinjection, either alone or in the presence of various concentrations of anti-GAP antibodies. For analysis of the maturation induced by hormones, the oocytes are incubated in the presence of insulin (10 μg/ml) and zinc chloride (10 μM) (bovine pancreatic insulin, Sigma) or progesterone (1 μM). The oocytes are kept at 20° C. in modified Barth medium, and the […] germinal vesicle breakdown (GVBD) is determined after incubation for 18 hours by dissection of the oocytes, which have been fixed beforehand in the presence of 5% of trichloroacetic acid. The results are expressed by the % GVBD on groups of oocytes.\nE.3.1. The biological activity of the peptides according to the invention was studied by measuring their effect on the maturation of Xenopus eggs induced by p21 ras Lys12, by insulin or by progesterone.\nThe protocol used is the same as that described in Example E.1.1. above. The activity is measured by microinjection into the cytoplasm of the oocytes of 40 nl of the ras p21 protein in modified Barth medium, either alone or in the presence of various peptides according to the invention in varying concentrations. The results are expressed by the % of GVBD over the groups of oocytes. The results are shown on FIG. 3."}, "[3]": {"target": "T1, GAP-p21 interaction (Ha-ras p21-GTP and GAP) (Homo sapiens, UniProt P20936)", "T1 construct": "GST (glutathione S-transferase) (N); made in house; host or cells: E. coli (crude cytosol for GAP)", "T1 sequence (P20936 1-1047)": "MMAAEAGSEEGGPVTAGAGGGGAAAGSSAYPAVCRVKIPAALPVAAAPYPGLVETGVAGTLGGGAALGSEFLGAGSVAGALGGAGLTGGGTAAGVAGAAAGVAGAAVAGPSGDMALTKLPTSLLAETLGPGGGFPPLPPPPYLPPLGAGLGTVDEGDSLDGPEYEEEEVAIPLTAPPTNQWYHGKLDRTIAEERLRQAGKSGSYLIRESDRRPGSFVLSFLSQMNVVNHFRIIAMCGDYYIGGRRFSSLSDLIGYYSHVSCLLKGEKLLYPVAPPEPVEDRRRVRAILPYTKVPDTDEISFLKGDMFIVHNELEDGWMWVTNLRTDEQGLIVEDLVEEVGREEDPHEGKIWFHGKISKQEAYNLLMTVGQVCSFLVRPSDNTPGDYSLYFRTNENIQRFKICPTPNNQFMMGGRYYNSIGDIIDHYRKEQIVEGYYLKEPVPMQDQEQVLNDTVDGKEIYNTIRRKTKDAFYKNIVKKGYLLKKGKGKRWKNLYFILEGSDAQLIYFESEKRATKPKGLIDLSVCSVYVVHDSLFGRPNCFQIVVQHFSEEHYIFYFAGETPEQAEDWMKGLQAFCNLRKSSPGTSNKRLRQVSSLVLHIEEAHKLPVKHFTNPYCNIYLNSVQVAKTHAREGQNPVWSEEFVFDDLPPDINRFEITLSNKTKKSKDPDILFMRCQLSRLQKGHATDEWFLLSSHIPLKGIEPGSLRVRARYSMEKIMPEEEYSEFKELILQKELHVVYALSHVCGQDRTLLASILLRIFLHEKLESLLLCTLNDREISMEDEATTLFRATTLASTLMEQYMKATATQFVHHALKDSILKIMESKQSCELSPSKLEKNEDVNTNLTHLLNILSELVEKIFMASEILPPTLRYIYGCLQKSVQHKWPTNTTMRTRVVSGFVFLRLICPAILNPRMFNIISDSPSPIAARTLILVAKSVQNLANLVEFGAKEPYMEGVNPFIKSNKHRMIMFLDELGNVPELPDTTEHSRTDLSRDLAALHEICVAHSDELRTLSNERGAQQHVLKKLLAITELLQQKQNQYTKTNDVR", "experiment": "GAP-stimulated GTPase reaction of Ha-ras p21-GTP (GAP-p21 interaction)", "format": "biochemical", "description": "E.1.2. Absence of an effect of the Ac200 antibody on the GAP-p21 interaction The interaction between GAP and the complex p21-GTP is determined in accordance with the following protocol. The normal protein Ha-ras p21 (Rey et al., Mol. Cell. Biol. 9 (1989) 3904) is equilibrated with an excess of (γ-^32 P) GTP (3000 Ci/mmol, Dupont, NEN Research Products, Boston, Mass.) in a buffer of Tris-HCl 20 mM (pH 7.5), 100 mM (NH4)2 SO4, 10 mM dithiothreitol, 1 mM MgCl2 and 50 mg/ml of bovine serum albumin for 30 minutes at 30° C. The incubation is stopped by applying the cooled solution to a PD10 column (Pharmacia) equilibrated by a buffer of Tris-HCl 20 mM (pH 7.5), 10 mM dithiothreitol, 10 mM MgCl2 and 1 mM phenylmethylsulphonyl fluoride, to eliminate the free nucleotides. The GTPase reaction is a variant of that described by Cassel and Selinger (Biochim. Biophys. Acta 452 (1976) 538). The reaction is started by addition of 10 μl (15 μg) of cytosol obtained by sonic treatment of strains of E. coli which express GAP (cf. Example E.2.1. below for the production of GAP) to 1 pmol of Ha-ras p21-(g^-32 P) GTP in the buffer Tris-HCl 20 mM (pH 7.5), NaCl 100 mM, dithiothreitol 10 mM, MgCl2 5 mM, GTP 100 μM and BSA 50 μg/ml, to obtain a final volume of 50 μl. […] After centrifugation at 1800 g, the radioactivity is measured in samples of 200 μl of the supernatant."}}, "data": [{"molecule": "P9: Peptide SEQ ID No. 4, purified as GST fusion protein and separated from GST by thrombin cleavage (protein) GGGFPPLPPPPYLPPLGAGLGTVDEGDSLDGPEYEEEEVAIPLTAPPTNQWYHGKLDRTIAEERLRQAGKSGSYLIRESDRRPGSFVLSFLSQMNVVNHFRIIAMCGDYYIGGRRFSSLSDLIGYYSHVSCLLKGEKLLYPVAPPEPVEDRRRVRAILPYTKVPDTDEISFLKGDMFIVHNELEDGWMWVTNLRTDEQGLIVEDLVEEVGREEDPHEGKIWFHGKISKQEAYNLLMTVGQVCSFLVRPSDNTPGDYSLYFRTNENIQRFKICPTPNNQFMMGGRYYNSIGDIIDHYRKEQIVEGYYLKEPVPMQDQEQVLNDTVDGKEIYNTIRRKTKDAFYKNIVKKGYLLKKGKGKRWKNLYFILEGSDAQLIYFESEKRATKPKGLIDLSVCSVYVVHDSLFGRPNCFQIVVQHFSEEHYIFYFAGETPEQAEDWMKGLQAFCNLRKSSPGTSNKRLRQVSSLVLHIEEAHKLPVKHFTNPYCNIYLNSVQVAKTHAREGQNPVWSEEFVFDD", "values": [{"measurement": "Reduction of the transforming power of an oncogenic ras gene", "setting": "[1]", "result": "capable of very greatly reducing the transforming power of an oncogenic ras gene"}, {"measurement": "Inhibition of the transformation activity of the ras protein (maturation of Xenopus eggs, % GVBD)", "setting": "[2]", "result": "completely blocks maturation of ovocytes"}]}, {"molecule": "[275-351] GAP: fragment of the protein GAP holding the effector region, about residues 275 to 350; peptide SEQ ID No. 2 (protein) APPEPVEDRRRVRAILPYTKVPDTDEISFLKGDMFIVHNELEDGWMWVTNLRTDEQGLIVEDLVEEVGREEDPHEGKI", "values": [{"measurement": "Relative GAP activity", "setting": "[3]; None = 100, GTPase reaction 3 minutes at 30° C., 1 pmol Ha-ras p21-GTP, E. coli cytosol expressing GAP", "result": 100}, {"measurement": "Effect on the GAP-p21 interaction", "setting": "[3]; same GTPase test, result in words", "result": "does not modify the functional interaction of GAP-p21"}, {"measurement": "Inhibition of the transformation activity of the ras protein (maturation of Xenopus eggs, % GVBD)", "setting": "[2]", "result": "capable of inhibiting the transformation activity of the ras protein"}]}, {"molecule": "[768-860] PLCγ: fragment of identical length prepared by the same techniques from type γ human phospholipase C (protein, UniProt P19174 768-860, looked up, fragment) EPDYGALYEGRNPGFYVEANPMPTFKCAVKALFDYKAQREDELTFIKSAIIQNVEKQEGGWWRGDYGGKKQLWFPSNYVEEMVNPVALEPERE", "values": [{"measurement": "Inhibition of the transformation activity of the ras protein (maturation of Xenopus eggs, % GVBD)", "setting": "[2]", "result": "does not have the activity of the peptide according to the invention"}]}]}
